From the supplement of paper PMC12764529
± gives the half width of the 95% confidence interval.

Tests used:
[1] = folding stability dG unfold from chymotrypsin proteolysis; higher = more stable
Procedure, shortened: (§1)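 Designed mini-proteins with no cysteine and under 80 residues were kept only if AlphaFold2 dimer inter-PAE was above 15. In a PA-tagged cDNA display construct, they were digested with trypsin and chymotrypsin and then sequenced. K50 was inferred by Bayesian fitting of counts, and unfolding free energy was derived per protease or combined against a sequence-predicted unfolded-state K50 and a shared folded-state K50.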

[2] = folding stability dG unfold (combined trypsin and chymotrypsin); higher = more stable
Procedure, shortened: as §1

[3] = folding stability dG unfold from trypsin proteolysis; higher = more stable
Procedure, shortened: as §1

Row | Sequence | folding stability dG unfold [1] | folding stability dG unfold [2] | folding stability dG unfold [3]
1 | SAKIEINPEGGQIEMDYELNGKKVKITIQMPPENGMFPVKIEPPDLGKPIEVPYPFNSVDDMLDWAAEASAG [r14_803_TrROS] | 0.74 ± 0.13 kcal/mol | 0.433 ± 0.36 kcal/mol | 0.488 ± 0.11 kcal/mol
2 | SAGMVTTTTVTFPNGATMTVTTHSSGIITIEATSEEDARAFLEAQGLPLTSREVLPDGTYRFTAVVPPSAGG [r19_257_JUSTAS] | 4.53 ± 0.057 kcal/mol | 4.52 ± 0.062 kcal/mol | 4.61 ± 0.13 kcal/mol
3 | SAGGSAGGSAGGAPEKEVTVRVRITVFRDGKPVEEIELEPGQTLTFPPGARVVIEVELLPSAGGSAGGSAGG [r7_141_TrROS_Hall] | 3.51 ± 0.12 kcal/mol | 3.39 ± 0.17 kcal/mol | 3 ± 0.13 kcal/mol
4 | SAGGSAGGSAGGAELLPSDVLKFTLTIQPDLKGSPPIIVEVTISVPPEVLEKPEIEVSLSAGGSAGGSAGGS [r10_672_JUSTAS] | 2.87 ± 0.093 kcal/mol | 2.7 ± 0.15 kcal/mol | 2.12 ± 0.15 kcal/mol
5 | SAGGSAGGSAGTEIKIPPEFPDLPVKVYPIEVTLLGKGKPKKVILNVATTPDAIIAVDPESAGGSAGGSAGG [r11_21_TrMRF] | -0.61 ± 0.28 kcal/mol | -0.623 ± 0.2 kcal/mol | -0.478 ± 0.1 kcal/mol
6 | SMTLEEAKEIAEKNPDIPVALIFPGKKLIYIYHPKSGKWEVKPVTSIEEAIEALEKEDIDAIFIVPAELDSA [r9_775_TrMRF] | 3.93 ± 0.087 kcal/mol | 4.06 ± 0.16 kcal/mol | 4.54 ± 0.44 kcal/mol
7 | SAGGSAGGSAGGSKYEIEILKIEELEDDSYRITAKINIPEAGTTEEITLTVPKGVELKLSAGGSAGGSAGGS [r4_133_TrMRF] | 1.21 ± 0.062 kcal/mol | 1.23 ± 0.072 kcal/mol | 1.21 ± 0.017 kcal/mol
8 | SAGGSAGGSAGSSSISRETFDPETGLRYVYDPETDTITVIDLSNNKVVKTTPVGPEELERSAGGSAGGSAGG [r17_271_JUSTAS] | 1.95 ± 0.022 kcal/mol | 1.55 ± 0.07 kcal/mol | 0.244 ± 0.068 kcal/mol
9 | SAGGKIKKGETVKIKIEIENKNGEKKTIELEVKKEDLEKLKELIEKLKEKGFKIKKIEIKVLKKEKKSAGGS [r8_497_TrROS_Hall] | 2.96 ± 0.03 kcal/mol | 2.51 ± 0.2 kcal/mol | 1.02 ± 0.13 kcal/mol
10 | SAGGSAMFKSPSDKYFEPIAVIDLEKASPETLKALLEENPGKLLVIPKSTGKPRLIPAEELLELLGSAGGSA [r15_904_TrMRF] | -0.154 ± 0.41 kcal/mol | 0.0646 ± 0.2 kcal/mol | 0.0892 ± 0.21 kcal/mol
11 | SAGGSAGGSAAKVISVNPETGEVVVEYPDGSVGYFKVKGGVVEEVRSSPVLPVPEDDPLFTSAGGSAGGSAG [r3_406_TrMRF] | 1.2 ± 0.088 kcal/mol | 1.15 ± 0.077 kcal/mol | 1.05 ± 0.032 kcal/mol
12 | SAGGSFPIADVKEVKVEAYPETNTAKVPFTFPNGVTAVADAYLDPVTGRPVLVVRTPDGRLVVLPLSAGGSA [r2_490_TrMRF] | 1.15 ± 0.12 kcal/mol | 1.3 ± 0.094 kcal/mol | 1.43 ± 0.032 kcal/mol
13 | MYLVRIKIEYKTEDGEKVEKEITLLVEPSEEEAKEKAEELARKIAEELGLSEEEIKKIEVEVVKLGEELEES [r1_159_TrROS_Hall] | 4.37 ± 0.12 kcal/mol | 4.29 ± 0.15 kcal/mol | 4.05 ± 0.22 kcal/mol
14 | SAGSRILERLREEGLTITKVTSVEKGPGYERIEVETALPDGTTGKVKVTRDPADPDKIEVELEFTPAEVSAG [r5_683_JUSTAS] | 1.71 ± 0.023 kcal/mol | 1.38 ± 0.052 kcal/mol | 0.797 ± 0.022 kcal/mol
15 | SAGGSAGGSAGGSSSSLTPIGSSEKLEKLPDSSLRLVTTTTYRDPVTGETSTTTTVTLTDSAGGSAGGSAGG [r7_546_JUSTAS] | 0.861 ± 0.045 kcal/mol | 0.487 ± 0.052 kcal/mol | -0.46 ± 0.091 kcal/mol
16 | SAGGSAGGMVVERKDMDPEEAVEDTKKRIKEETGWEVTEITVTEFPEEPRLVVTIKVKKPPEKSSAGGSAGG [r6_462_JUSTAS] | 0.71 ± 0.016 kcal/mol | 0.408 ± 0.098 kcal/mol | -0.287 ± 0.11 kcal/mol
17 | SAGDNLKIDVEVEPAKVILGEFDENGKLIKPIEKDVLIVKVTVTFSNGKKLEIRATFFDGKLISVSSGSAGG [r19_44_TrMRF] | 5.26 ± 0.086 kcal/mol | 5.07 ± 0.19 kcal/mol | 3.56 ± 0.16 kcal/mol
18 | SAGGSAGGSAGASPSVPFTVKVTIKSPNGLSTKTISLSSLEDLEALPLPNVVEIEITPLSSAGGSAGGSAGG [r17_290_JUSTAS] | 0.78 ± 0.14 kcal/mol | 0.907 ± 0.14 kcal/mol | 1.04 ± 0.049 kcal/mol
19 | SAGGMIRIERDGDRLTIQIPMPPGQPPTPEQVEEFARDILKKLGPDVRVKDVSHDPNGGFTIELKVPSAGGS [r8_103_TrROS] | 2.15 ± 0.051 kcal/mol | 1.81 ± 0.069 kcal/mol | 1.48 ± 0.028 kcal/mol
20 | SAGPWIMIPLPPELREIAKKAGMSPDDVETVEIPLKFGDREVKIEVEVMPDDGWIMVRFKSNGKEFMIPSAG [r5_545_TrROS] | 3.22 ± 0.13 kcal/mol | 2.38 ± 0.29 kcal/mol | 1.55 ± 0.1 kcal/mol
21 | SAGGSAGGSAGGGLGYRTLTGRVEFELNITYLTEDGSPATLNLRFELELRFVVPVPPDYPSAGGSAGGSAGG [r7_926_TrMRF] | 5.54 ± 0.098 kcal/mol | 5.37 ± 0.14 kcal/mol | 3.7 ± 0.14 kcal/mol

Row | Sequence | folding stability dG unfold [1] | folding stability dG unfold [2] | folding stability dG unfold [3]
22 | SAGSWIDKLPPSFTSSSPLAKRPDGTRVYAYEYTTESSPSILLVEFDASGRLRKIEKLDPETAAKAIAASAG [r5_73_JUSTAS] | 1.14 ± 0.071 kcal/mol | 1.22 ± 0.11 kcal/mol | 1.19 ± 0.031 kcal/mol
23 | SAGAPSTREFEILELVPLPPGTTAEELRATLEREVELPDDSVARIRVRAVFLSPGPAFALVLYRVEVRESAG [r5_939_TrMRF] | 3.314 ± 0.015 kcal/mol | 3.22 ± 0.12 kcal/mol | 3.15 ± 0.11 kcal/mol
24 | SAGGSAGGSKETLTIKIKVEVKDENGEKKEVTVTLTIKAETKEEAEALLKELKEKYPNVKVEPSAGGSAGGS [r12_1043_TrROS_Hall] | 2.9 ± 0.11 kcal/mol | 2.93 ± 0.23 kcal/mol | 2.7 ± 0.38 kcal/mol
25 | SAGIKIKDISRDPNGYVEVTIVYPPGKSIKEIIELIRKLFGFKIEKVEIYPSPNGVYITYRFRIPEGAISAG [r5_774_TrROS] | 4.47 ± 0.058 kcal/mol | 4.13 ± 0.12 kcal/mol | 3.15 ± 0.11 kcal/mol
26 | SAGMVEVYEEDKRLLVRVTLESPDPSTITEETVRELLERLGLPVEELEISPTALPNGSYTVTAEVVVLPSAG [r5_922_JUSTAS] | 1.61 ± 0.025 kcal/mol | 1.59 ± 0.17 kcal/mol | 1.39 ± 0.056 kcal/mol
27 | SAMKVEKLEELPDKEILKVEATPEELRKIVEELAKANPGYEVSYKILEEEPIALITLTPIPKGPKENLVSAG [r14_600_JUSTAS] | 0.0174 ± 0.2 kcal/mol | 0.796 ± 0.13 kcal/mol | 1.08 ± 0.06 kcal/mol
28 | SAGGSAGGKRTVQIQFPMGPQWLDKLRDAFPNVDIEELEYDEGPGWHRIKIKVDSPEKIRDFIKSAGGSAGG [r6_334_TrROS] | 1.41 ± 0.079 kcal/mol | 0.991 ± 0.18 kcal/mol | 0.63 ± 0.19 kcal/mol
29 | SAMKKGEKVKVTLEIEVNGKKYKIELVYDKENNTYTIKIKNEKTGETKTIEVKAKTKEEALEAAKKLLESAG [r14_65_TrROS_Hall] | 2.55 ± 0.035 kcal/mol | 2.41 ± 0.16 kcal/mol | 1.96 ± 0.076 kcal/mol
30 | SAGGSAGGSAGMEIEEEDGKLRLRLEAEFEVTVTTRNADGSTTETTARVRVELTFELPEESAGGSAGGSAGG [r17_103_TrROS_Hall] | 3.89 ± 0.12 kcal/mol | 3.89 ± 0.22 kcal/mol | 3.67 ± 0.29 kcal/mol
31 | SAGGSAGGSAGGKITFAPKTTLLLTATIPVTVYSLHPDGTLTTETRSATITFTIPPELLSAGGSAGGSAGGS [r10_383_TrMRF] | 4.1 ± 0.074 kcal/mol | 3.64 ± 0.12 kcal/mol | 2.4 ± 0.086 kcal/mol
32 | SAGGSAGGSAGMKVELSVAPDPATGEPVLLFHFEDFTLALNPNTGAIGVYLKDEVELFELSAGGSAGGSAGG [r17_544_TrMRF] | 1.98 ± 0.1 kcal/mol | 2.03 ± 0.14 kcal/mol | 2 ± 0.13 kcal/mol
33 | SMSYTVTVEYPDTGKTTTTPIPPDALEVSVSLSGPSTIRITITTDVNGATTTTTSTVTLPPPALPPSTLLSA [r9_1067_JUSTAS] | 0.927 ± 0.28 kcal/mol | 1.06 ± 0.22 kcal/mol | 1.11 ± 0.097 kcal/mol
34 | SAGGMIAPDEKVLVKVTLSEGTTSRELEFEFEVPPGATEEELKQRVIDEIPEEPRKNWKVEVEIKPVSAGGS [r16_321_JUSTAS] | 0.198 ± 0.24 kcal/mol | 0.596 ± 0.21 kcal/mol | 0.918 ± 0.056 kcal/mol
35 | SAGGSAGGVVPLEELAKRLGWSPEFLRELEEKGIKVELERVTPDKVVVTLTEPGTGETKTIELPSAGGSAGG [r6_969_JUSTAS] | 2.82 ± 0.13 kcal/mol | 3.08 ± 0.17 kcal/mol | 3.19 ± 0.24 kcal/mol
36 | SAGGSAGGSKTPVFYIPPSLKDPEKAIELLEEIRKKIPPGTKIAVIAPGGGIPELKKAGLITASAGGSAGGS [r12_992_TrMRF] | 0.518 ± 0.03 kcal/mol | 0.472 ± 0.11 kcal/mol | 0.344 ± 0.048 kcal/mol
37 | SAGGSAGGSAGGGKLAIRVEIEPVRTETRLRADGSLETRTEFRVRIEIRPVGNPDDPRNNSAGGSAGGSAGG [r7_523_TrMRF] | 4.36 ± 0.056 kcal/mol | 3.89 ± 0.073 kcal/mol | 2.89 ± 0.059 kcal/mol
38 | SAGGSAGGGGVAEEVAALLKALGLKVKKIEVEVEEVPPDKKVARVKVTAELPTKKVTFELRVEVSAGGSAGG [r6_532_TrMRF] | 3 ± 0.068 kcal/mol | 2.76 ± 0.28 kcal/mol | 1.97 ± 0.092 kcal/mol
39 | SAGGSAGGKIDLKDLKIVKIETVKNENGETFYRVVIEVDGKKIVLTVPENMSLEELLKKLKELSSAGGSAGG [r6_232_TrROS_Hall] | 4.22 ± 0.055 kcal/mol | 4.07 ± 0.081 kcal/mol | 3.36 ± 0.13 kcal/mol
40 | SAGGSAGGSAGSIVLTKTEILPGPENRPIIKTTIYKPPGPITITYPGGDPSKLVIETNSGSAGGSAGGSAGG [r17_64_JUSTAS] | -0.331 ± 0.37 kcal/mol | 0.0213 ± 0.28 kcal/mol | 0.247 ± 0.032 kcal/mol
41 | SNKIDKRIVSVTFYESLPNGSVKVNNLVFISTSDGKVRLVNAGEITIPLGDKTLSINIGEASSNVKLGKISA [r9_1113_TrMRF] | 1.52 ± 0.032 kcal/mol | 1.37 ± 0.041 kcal/mol | 1.01 ± 0.034 kcal/mol
42 | SAGKPKIIEEKTITVPPGATLTIEFPPEVKRIEIINLDTGKTETIEIKPGEKLTFTFPPGSTVRVRVLSAGG [r19_118_TrROS_Hall] | 4.06 ± 0.046 kcal/mol | 3.65 ± 0.09 kcal/mol | 2.38 ± 0.029 kcal/mol
